From US20260042850A1 (LOCKBODY THERAPEUTICS, published 2026)
Positions count from the first letter of the chain named. Blank lines part the entries; values can stand above or below the binder they belong to.

Legend:
[1] = molecular target: T1, human C-MET on stably transfected CHO-K1 cells (human, UniProt P08581 25-1390); experiment: flow cytometry, C-MET CHO-K1 cells
T1 construct: also called hucMET; human C-MET+ CHO-K1 cells

[2] = molecular target: T2, cynomolgus monkey C-MET on stably transfected CHO-K1 cells (cynomolgus monkey, UniProt A0M8R7 25-1381 (Papio anubis entry)); experiment: flow cytometry, C-MET CHO-K1 cells
T2 construct: also called cycMET; cyno C-MET+ CHO-K1 cells

[3] = molecular target: T1, human C-MET on stably transfected …; experiment: flow cytometry, C-MET CHO-K1 cells; remark: listed apart in the source
Outline: (§1)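 Purified IgGs titrated three-fold from 500 nM to 0.08 nM on CHO-K1 cells stably expressing C-MET, with wild-type CHO-K1 as control. Detection by FITC-conjugated mouse anti-human IgG; MFI from 10000 cells per sample by flow cytometry.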

[4] = molecular target: T2, cynomolgus monkey C-MET on stably …; experiment: flow cytometry, C-MET CHO-K1 cells; remark: listed apart in the source
Outline: as §1

[5] = molecular target: T3, cynomolgus monkey C-MET His tag, monomeric (cynomolgus monkey, UniProt A0M8R7 25-932 (Papio anubis entry)); experiment: SPR Biacore, IgG captured, monomeric C-MET-His analyte
T3 construct: also called monomeric cyno C-MET; cyCMET
Outline: (§2)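 Purified IgG (50 nM) captured via immobilized anti-human CH1 antibody on a CM5 chip; monomeric His-tagged human or cyno C-MET injected as analyte, 2-fold dilutions 100 nM to 6 nM, 300 s dissociation. HBS-EP pH 7.4 running buffer, reference-channel corrected. KD from 1:1 Langmuir global fit.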

[6] = molecular target: T4, human C-MET His tagged, monomeric (human, UniProt P08581 25-932); experiment: as above
T4 construct: also called monomeric human C-MET; biotinylated human C-MET-His
Outline: as §2

[7] = molecular target: T4, human C-MET His tagged, monomeric; experiment: Alphascreen epitope competition in solution: varied IgG4(S228P) against 224G11 IgG4(S228P) binding to biotinylated human C-MET, CPS
Procedure: FIG. 4. Epitope competition analysis of IgG4(S228P) proteins in Alphascreen. Anti-C-MET IgG4(S228P) clones were applied in an epitope competition assay using Alphascreen technology. In this assay, library-derived and designer IgGs were analysed for their retention of the parental 224G11 epitope by competing for 224G11 IgG4(S228P) binding to human C-MET protein, in solution.
The AlphaScreen assay (Perkin Elmer) was performed in a 25 μl final volume in 384-well white microtiter plates (Greiner). The reaction buffer contained 1×PBS pH 7.3 (Oxoid, Cat. nr. BR0014G) and 0.05% (v/v) Tween® 20 (Sigma, Cat. nr. P9416). Purified IgG samples were titrated in three fold serial dilutions starting at 50 nM final concentration and incubated with biotinylated human C-MET-His (Acrobiosystems) at 1 nM final concentration for 20 minutes at room temperature. The parental IgG and the anti-human IgG4(S228P) Acceptor beads at were added and the mix was incubated for 1 hour at room temperature. Followed by addition of the Streptavidin Donor beads and incubation for 30 minutes at room temperature. The emission of light was measured in the EnVision multilabel plate reader (Perkin Elmer) and analysed using the EnVision manager software. Values were reported as Counts Per Second (CPS) and corrected for crosstalk.

[8] = molecular target: T3, cynomolgus monkey C-MET His tag, …; experiment: SPR Biacore
Procedure: (§3) Affinity (KD) of purified IgGs was determined via SPR with antigen in-solution on a Biacore® 3000 (GE). A mouse anti-human antibody (CH1 specific) was immobilized on a CM5 Sensor Chip to a level of 2000 RU in acetate buffer at pH 4.5 using amine coupling following the Wizard instructions for two channels. One channel was used for background signal correction. The standard running buffer HBS-EP pH 7.4 was used. Regeneration was performed with a single injection of 10 μl of 10 mM Glycine at pH 1.5 at 20 μl/minute. IgG samples were injected for 2 minutes at 50 nM at 30 μl/min followed by and off-rate of 60 seconds. The monomeric antigen (human C-MET His tagged or cynomolgus monkey C-MET His tag) was injected in two fold serial dilutions from 100 nM down to 6 nM, for 2 minutes at 30 μl/min followed by an off-rate of 300 seconds. The obtained sensorgrams were analysed using the Biacore® 3000 evaluation (BIAevaluation) software. The KD was calculated by simultaneous fitting of the association and dissociation phases to a 1:1 Langmuir binding model.

[9] = molecular target: T4, human C-MET His tagged, monomeric; experiment: SPR Biacore
Procedure: as §3

T2 sequence (A0M8R7 25-1381 S170N/I621T limits assumed): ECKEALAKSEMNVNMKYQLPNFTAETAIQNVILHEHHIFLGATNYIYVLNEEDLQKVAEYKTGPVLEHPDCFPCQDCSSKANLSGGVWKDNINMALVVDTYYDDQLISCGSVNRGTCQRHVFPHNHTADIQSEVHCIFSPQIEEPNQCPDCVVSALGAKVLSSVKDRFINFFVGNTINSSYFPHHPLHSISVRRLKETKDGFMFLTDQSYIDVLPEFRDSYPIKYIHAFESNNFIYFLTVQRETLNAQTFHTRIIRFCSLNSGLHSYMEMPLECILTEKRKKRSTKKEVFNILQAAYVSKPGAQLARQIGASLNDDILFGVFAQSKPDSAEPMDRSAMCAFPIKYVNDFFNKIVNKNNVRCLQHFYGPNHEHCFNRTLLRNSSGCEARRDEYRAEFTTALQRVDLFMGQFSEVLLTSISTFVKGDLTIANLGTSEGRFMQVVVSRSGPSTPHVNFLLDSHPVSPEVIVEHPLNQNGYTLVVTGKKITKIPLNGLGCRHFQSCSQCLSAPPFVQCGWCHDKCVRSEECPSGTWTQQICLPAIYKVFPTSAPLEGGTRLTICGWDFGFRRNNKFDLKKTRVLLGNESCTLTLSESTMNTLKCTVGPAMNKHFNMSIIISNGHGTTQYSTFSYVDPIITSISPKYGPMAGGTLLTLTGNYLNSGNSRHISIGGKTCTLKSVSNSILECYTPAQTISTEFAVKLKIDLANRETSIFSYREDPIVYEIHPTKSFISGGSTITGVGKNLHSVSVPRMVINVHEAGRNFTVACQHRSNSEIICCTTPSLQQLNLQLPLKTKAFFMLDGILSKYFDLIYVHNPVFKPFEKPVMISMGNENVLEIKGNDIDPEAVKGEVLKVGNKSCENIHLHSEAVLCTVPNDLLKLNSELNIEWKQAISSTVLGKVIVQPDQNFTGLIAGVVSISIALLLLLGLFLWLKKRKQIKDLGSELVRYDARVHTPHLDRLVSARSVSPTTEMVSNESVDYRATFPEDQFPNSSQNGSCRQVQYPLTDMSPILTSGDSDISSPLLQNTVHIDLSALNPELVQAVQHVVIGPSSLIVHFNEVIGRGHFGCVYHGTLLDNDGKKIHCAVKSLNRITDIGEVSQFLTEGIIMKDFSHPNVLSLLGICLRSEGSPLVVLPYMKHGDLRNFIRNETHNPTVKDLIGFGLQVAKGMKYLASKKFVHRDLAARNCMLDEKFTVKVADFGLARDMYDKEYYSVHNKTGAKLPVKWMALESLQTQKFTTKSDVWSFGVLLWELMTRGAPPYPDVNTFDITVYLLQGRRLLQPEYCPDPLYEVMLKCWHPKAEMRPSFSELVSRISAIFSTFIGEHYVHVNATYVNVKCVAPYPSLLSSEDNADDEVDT
T1 sequence (P08581 25-1390 limits assumed): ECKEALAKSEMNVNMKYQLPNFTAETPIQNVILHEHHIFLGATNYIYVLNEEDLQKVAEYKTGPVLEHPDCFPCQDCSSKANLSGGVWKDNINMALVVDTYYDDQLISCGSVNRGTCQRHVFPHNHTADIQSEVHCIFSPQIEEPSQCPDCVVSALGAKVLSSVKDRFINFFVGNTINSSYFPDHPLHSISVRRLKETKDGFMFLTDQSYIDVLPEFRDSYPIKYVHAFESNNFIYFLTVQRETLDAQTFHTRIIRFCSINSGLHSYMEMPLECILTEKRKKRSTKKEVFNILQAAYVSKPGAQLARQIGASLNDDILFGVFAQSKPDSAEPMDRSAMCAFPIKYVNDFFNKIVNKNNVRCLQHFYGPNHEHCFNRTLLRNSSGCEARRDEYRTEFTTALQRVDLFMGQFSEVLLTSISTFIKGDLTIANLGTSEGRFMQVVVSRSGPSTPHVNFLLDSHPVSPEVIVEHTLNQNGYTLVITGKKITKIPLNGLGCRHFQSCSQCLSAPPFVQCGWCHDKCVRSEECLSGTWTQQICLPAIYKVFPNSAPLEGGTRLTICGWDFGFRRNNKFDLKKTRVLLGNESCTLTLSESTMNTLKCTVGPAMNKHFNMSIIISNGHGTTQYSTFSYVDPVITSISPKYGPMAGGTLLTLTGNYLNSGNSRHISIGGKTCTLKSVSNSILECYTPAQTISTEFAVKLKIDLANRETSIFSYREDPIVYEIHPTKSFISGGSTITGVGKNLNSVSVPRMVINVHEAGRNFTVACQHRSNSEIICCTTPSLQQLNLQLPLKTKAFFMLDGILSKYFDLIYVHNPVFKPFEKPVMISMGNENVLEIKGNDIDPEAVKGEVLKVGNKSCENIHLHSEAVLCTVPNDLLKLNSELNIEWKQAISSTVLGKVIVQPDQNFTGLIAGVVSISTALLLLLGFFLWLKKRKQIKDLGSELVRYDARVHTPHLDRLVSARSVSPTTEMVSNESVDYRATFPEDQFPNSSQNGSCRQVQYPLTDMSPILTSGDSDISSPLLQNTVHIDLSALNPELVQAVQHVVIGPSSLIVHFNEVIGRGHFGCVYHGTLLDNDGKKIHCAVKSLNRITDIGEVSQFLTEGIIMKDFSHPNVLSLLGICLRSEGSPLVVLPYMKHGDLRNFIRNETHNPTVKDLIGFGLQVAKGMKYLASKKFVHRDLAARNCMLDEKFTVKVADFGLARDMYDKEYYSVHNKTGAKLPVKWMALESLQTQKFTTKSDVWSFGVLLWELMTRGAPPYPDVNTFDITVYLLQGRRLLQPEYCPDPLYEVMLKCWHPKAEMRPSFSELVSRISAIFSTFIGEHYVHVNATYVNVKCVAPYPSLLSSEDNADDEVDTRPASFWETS
T3 sequence (A0M8R7 25-932 S170N/I621T): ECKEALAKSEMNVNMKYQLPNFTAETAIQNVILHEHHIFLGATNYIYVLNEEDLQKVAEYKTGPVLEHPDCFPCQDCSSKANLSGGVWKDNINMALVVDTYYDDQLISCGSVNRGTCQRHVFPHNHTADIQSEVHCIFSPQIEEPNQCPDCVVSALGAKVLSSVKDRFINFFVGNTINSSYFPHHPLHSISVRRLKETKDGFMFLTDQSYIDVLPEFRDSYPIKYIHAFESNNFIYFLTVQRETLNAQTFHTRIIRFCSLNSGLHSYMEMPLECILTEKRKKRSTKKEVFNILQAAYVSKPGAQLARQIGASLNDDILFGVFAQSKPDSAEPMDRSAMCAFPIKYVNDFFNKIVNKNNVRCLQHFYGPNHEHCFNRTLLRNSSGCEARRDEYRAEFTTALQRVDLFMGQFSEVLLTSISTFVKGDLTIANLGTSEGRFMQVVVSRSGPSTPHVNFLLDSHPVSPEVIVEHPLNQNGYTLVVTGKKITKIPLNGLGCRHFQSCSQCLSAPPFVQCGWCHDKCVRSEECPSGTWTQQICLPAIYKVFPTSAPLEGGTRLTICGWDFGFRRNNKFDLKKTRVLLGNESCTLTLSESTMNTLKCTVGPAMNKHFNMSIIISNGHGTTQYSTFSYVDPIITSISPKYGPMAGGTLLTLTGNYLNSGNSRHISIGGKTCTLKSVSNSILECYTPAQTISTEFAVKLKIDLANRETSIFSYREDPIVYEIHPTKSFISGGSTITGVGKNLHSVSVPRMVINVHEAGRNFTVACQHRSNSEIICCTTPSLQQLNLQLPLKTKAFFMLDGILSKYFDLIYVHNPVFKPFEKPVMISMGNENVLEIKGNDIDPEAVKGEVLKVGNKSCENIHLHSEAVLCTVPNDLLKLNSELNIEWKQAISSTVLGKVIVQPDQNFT
T4 sequence (P08581 25-932): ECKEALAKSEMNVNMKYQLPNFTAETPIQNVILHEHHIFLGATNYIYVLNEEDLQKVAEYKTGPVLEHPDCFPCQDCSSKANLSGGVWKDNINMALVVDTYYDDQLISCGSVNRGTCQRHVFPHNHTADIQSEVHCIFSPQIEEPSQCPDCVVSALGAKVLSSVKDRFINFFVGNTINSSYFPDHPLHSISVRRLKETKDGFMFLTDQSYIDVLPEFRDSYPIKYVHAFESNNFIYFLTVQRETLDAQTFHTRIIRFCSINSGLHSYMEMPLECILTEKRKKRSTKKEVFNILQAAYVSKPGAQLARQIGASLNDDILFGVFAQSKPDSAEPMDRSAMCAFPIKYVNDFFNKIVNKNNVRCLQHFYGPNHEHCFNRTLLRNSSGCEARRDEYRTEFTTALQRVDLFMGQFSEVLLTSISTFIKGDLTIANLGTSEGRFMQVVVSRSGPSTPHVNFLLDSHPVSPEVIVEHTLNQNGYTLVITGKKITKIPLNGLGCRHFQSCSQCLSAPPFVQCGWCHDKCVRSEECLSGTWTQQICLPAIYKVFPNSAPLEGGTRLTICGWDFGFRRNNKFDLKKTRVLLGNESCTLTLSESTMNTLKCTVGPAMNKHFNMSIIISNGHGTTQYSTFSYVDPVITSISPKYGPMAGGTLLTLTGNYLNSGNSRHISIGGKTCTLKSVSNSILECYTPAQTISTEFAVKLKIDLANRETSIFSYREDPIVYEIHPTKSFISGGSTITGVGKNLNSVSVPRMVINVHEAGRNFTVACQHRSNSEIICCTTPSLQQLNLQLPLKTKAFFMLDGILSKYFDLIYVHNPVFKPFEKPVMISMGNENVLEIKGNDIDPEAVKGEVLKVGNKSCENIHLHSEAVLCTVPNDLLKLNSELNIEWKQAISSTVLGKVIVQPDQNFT

maximum MFI, fold over Isotype IgG4 background [1]: > 10 fold
maximum MFI, fold over Isotype IgG4 background [2]: > 10 fold
EC50 [3]: 9.66 nM
EC50 [4]: 2.94 nM
Kd [5]: 2.2 nM
koff [5]: 0.00011 s⁻¹
kon [5]: 49000 M⁻¹ s⁻¹
Kd [6]: 1.6 nM
koff [6]: 5e-05 s⁻¹
kon [6]: 31000 M⁻¹ s⁻¹
IC50 (read off the curve) [7]: ~2 nM
B1: 04E10 (antibody, IgG4, V domains shown)
VH: QVQLVQSGAEVKKPGASVKVSCKASGYIFTSYTMHWVRQAPGQGLEWMGWIKPNNGSASYAQKFQGRVTMTRDTSTSTVYMELSSLRSEDTAVYYCARSEITTEEDYWGQGTLVTVSS
VL: EIVLTQSPGTLSLSPGERATLSCRASQSVDSYANSYLHWYQQKPGQAPRLLIYRGSTRESGIPDRFSGSGSGTDFTLTISRLEPEDFAVYYCQQSKSEPLTFGGGTKVEIK

maximum MFI, fold over Isotype IgG4 background [1]: > 10 fold
maximum MFI, fold over Isotype IgG4 background [2]: > 10 fold
fold loss of KD against MH7 [8]: 10 to 20 fold
fold loss of KD against MH7 [9]: 10 to 20 fold
EC50 [3]: 1.23 nM
EC50 [4]: 0.65 nM
Kd [5]: 4.3 nM
koff [5]: 0.00048 s⁻¹
kon [5]: 110000 M⁻¹ s⁻¹
Kd [6]: 6.6 nM
koff [6]: 0.00039 s⁻¹
kon [6]: 59000 M⁻¹ s⁻¹
B2: MH9 (antibody, IgG4, V domains shown)
VH: B1 VH with I28T, W50I, K52N, N54S, N55G, A58T, S99Q, E105F
VL: B1 VL with D30S, N34Q, S60T, S95Y, K96G, E98S
